Measurements taken from paper PMC11601812.

Key:
[1] = target: steroid receptor coactivator 3 (SRC3), full-length, Strep II tagged (human) (UniProt Q9Y6Q9); experiment: SEC-MALS; R5020-bound PR-A, SRC3 and p300 mixed with PRE DNA; Superose 6 Increase; 20 mM Hepes, 50 mM NaCl, 5% glycerol, 1 mM TCEP, with or without 1 M urea, pH 7.5
[2] = target: progesterone receptor isoform A (PR-A), full-length, Strep II tagged (human) (UniProt P06401); experiment: as above
Chain of progesterone receptor isoform A (PR-A), full-length, Strep II tagged (human) (P06401 165-933): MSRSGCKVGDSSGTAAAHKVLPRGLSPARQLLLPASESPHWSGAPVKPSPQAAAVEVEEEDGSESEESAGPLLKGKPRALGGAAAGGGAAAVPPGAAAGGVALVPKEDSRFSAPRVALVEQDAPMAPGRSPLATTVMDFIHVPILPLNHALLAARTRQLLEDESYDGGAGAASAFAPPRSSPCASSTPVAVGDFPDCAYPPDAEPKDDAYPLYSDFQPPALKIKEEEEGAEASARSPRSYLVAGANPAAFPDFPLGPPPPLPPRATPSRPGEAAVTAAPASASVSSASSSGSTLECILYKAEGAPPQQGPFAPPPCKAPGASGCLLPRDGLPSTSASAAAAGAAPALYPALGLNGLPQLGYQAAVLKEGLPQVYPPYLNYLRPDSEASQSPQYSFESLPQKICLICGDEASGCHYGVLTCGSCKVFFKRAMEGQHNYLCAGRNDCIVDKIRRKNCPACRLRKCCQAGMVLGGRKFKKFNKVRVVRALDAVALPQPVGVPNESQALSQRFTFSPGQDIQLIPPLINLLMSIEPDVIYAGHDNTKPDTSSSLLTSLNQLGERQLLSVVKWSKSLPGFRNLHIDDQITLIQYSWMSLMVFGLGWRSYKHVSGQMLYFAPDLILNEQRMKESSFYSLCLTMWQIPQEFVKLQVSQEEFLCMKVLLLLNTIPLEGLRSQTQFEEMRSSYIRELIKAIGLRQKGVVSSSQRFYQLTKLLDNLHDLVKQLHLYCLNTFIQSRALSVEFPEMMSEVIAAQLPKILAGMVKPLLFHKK

Chain of steroid receptor coactivator 3 (SRC3), full-length, Strep II tagged (human) (Q9Y6Q9 whole entry, canonical isoform): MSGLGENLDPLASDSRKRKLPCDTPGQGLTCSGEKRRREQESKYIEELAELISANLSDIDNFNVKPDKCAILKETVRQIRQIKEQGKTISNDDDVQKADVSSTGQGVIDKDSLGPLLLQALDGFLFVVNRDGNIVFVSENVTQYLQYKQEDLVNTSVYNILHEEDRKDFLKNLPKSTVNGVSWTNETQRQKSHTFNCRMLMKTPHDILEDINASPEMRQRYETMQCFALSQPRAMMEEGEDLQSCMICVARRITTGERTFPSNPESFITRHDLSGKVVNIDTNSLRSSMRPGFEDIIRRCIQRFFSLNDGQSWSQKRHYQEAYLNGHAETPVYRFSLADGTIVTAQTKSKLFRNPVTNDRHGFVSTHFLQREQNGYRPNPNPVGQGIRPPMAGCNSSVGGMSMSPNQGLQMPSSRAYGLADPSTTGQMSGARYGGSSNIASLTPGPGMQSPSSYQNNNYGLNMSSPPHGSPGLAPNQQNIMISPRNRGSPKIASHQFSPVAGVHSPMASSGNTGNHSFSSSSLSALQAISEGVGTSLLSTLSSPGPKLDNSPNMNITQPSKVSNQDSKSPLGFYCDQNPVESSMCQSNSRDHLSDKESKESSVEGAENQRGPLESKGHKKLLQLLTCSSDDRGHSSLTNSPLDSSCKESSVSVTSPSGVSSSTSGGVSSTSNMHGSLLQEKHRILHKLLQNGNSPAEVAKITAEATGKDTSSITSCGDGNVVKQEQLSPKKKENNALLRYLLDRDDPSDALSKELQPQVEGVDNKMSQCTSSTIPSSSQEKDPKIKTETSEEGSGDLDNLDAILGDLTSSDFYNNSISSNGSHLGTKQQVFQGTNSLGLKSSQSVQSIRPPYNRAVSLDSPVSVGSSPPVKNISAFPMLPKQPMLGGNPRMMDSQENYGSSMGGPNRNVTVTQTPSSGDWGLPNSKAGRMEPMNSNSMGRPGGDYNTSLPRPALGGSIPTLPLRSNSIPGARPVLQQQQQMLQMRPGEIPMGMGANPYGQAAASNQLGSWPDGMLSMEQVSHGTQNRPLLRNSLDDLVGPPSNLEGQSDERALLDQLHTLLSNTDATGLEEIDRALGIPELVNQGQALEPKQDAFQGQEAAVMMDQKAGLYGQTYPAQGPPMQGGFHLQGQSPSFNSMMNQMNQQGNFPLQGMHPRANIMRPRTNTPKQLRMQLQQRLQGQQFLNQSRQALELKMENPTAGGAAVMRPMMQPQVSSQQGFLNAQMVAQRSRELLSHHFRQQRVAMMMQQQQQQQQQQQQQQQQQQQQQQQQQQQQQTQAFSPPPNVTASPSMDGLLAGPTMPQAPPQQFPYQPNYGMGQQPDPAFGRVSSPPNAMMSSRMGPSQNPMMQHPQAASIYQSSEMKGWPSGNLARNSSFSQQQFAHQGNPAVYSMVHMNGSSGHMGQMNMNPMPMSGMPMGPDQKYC

“histone acetyltransferase p300, full-length, Strep II tagged, Q09472 1-2414” was tested, and the stoichiometry N [1] was 1 and the stoichiometry N [2] was 0.5.
